In US6887705B1, “Tyrosine phosphorylated cleavage furrow-associated proteins (PSTPIPs)” (Genentech, Inc., priority 1997, dated 2005):
Entries after “also recorded” stand apart in the source; their conditions may differ. Where two headings read alike, the source gives them in different places.

How the values were obtained:
CHO cells = test: Confocal microscopy of PST PIP forms expressed in CHO cells; format: cell-based, Chinese hamster; settings: transfected CHO cells
Protocol: Confocal microscopy was performed as previously described (Spencer et al, (1997), supra). Briefly, CHO cells in chamber slides were transfected using Lipofectamine and the indicated plasmids. 48 hours later, cells were fixed in formaldehyde and stained with an anti-FLAG epitope specific antibody (Kodak) and Fluorescein-Phalloidin (Molecular Probes). Anti-Flag stained cells were washed and stained with Cy3-conjugated sheep anti-mouse IgG. Stained cells were observed using Molecular Dynamics Confocal Microscope™ (2001) and analyzed with ImageSpace™ software (Molecular Dynamics).

[1] = tested on: PST PIP - PTP HSCF association; test: Coprecipitation of PST PIP and PTP HSCF from co-transfected COS cells; format: cell-based
Protocol: (§1) COS-7 cells were transfected by electroporation. Briefly, 1.5×10^6 COS-7 cells were mixed with 24 μg total DNA in PBS and electroporated at 960 μF, […] (Bio-Rad™ Gene Pulsar™). Following electroporation, cells were seeded in 10 cm dishes and incubated for 3 days. 10-cm dishes of transfected COS cells were washed twice with ice-cold PBS, and lysed in 1 ml of M-RIPA (50 mM Tris 7.4, 1% NP40, 0.25% DOC, 150 mM NaCl, 1 mM sodium ortho-vanadate, 1 mM NaF plus Complete™ Protease Inhibitors (Boehringer Mannheim)). Lysates were incubated for 15 minutes with 100 μl UltraLink Immobilized Protein A/G™ (Pierce) at 4° C., followed by centrifugation for 5 minutes. Supernatants were collected and stored at −70° C. or directly immunoprecipitated. 5 μg of M2 or 12CA5 was added to 500 μl of lysate and incubated overnight at 4° C. Ultralink Protein A/G™ was added and incubation continued for 2 hours at 4° C. The immune complexes were washed 3 times with M-RIPA. The proteins were subjected to SDS-PAGE and transferred to nitrocellulose in 1X Transfer Buffer™ (Novex). Immunoblots were blocked overnight at 4° C. in 3% milk/PBS. To detect Flag-tagged PIP, blots were incubated with 10 μg/ml Bio-M2 (Biotinylated anti-FLAG monoclonal Ab, KODAK) followed by incubation in 10 μg/ml streptavidin-HRP (UBI). To detect HA-tagged PTPhscf, blots were incubated in anti-(HA)-peroxidase (Boehringer Mannheim) as per manufacturer's instructions. To detect phosphotyrosine, blots were incubated in HRP-conjugated 4G10 (anti-phosphotyrosine monoclonal, UBI) as per manufacture's instructions.
In vitro binding analyses between various PTP HSCF and PST PIP constructs were performed as previously described (Spencer et al, (1997), supra). Briefly, plasmids were transcribed and translated in vitro using the TnT Rabbit Reticulocyte Lysate System (Promega). Samples were diluted in 50 mM HEPES, pH 7.2, 1% triton X-100, 10% glycerol, 100 mM NaCl, and 2 μg/ml each of leupeptin, pepstatin, aprotinin and PMSF (lysis buffer). Samples were than reacted with GST fusion proteins at various concentrations, and the bound proteins were centrifuged using glutathione-sepharose beads and analyzed on SDS polyacrylamide gels. C-terminally-derived peptide inhibition studies were performed by incubating the GST fusion protein binding reactions in the presence of 10 μg/ml of the indicated peptides. Peptides were produced by FMOC-protected amino acids as previously described (Spencer et al, (1997), supra). In vivo interactions between various forms of PTP HSCF and PST PIP were also performed as previously described (Spencer et al, (1997), supra). Briefly, COS cells were transfected with various constructs, and after 48 hours, lysates were prepared and immunoprecipitated with antibodies to either the FLAG epitope contained at the C-terminus of PST PIP or an HA epitope contained at the N-terminus of PTP HSCF. The resultant blots were probed with anti-FLAG to detect PST PIP, anti-HA to detect PTP HSCF or anti-phosphotyrosine to detect levels of this modified amino acid in each protein.

[2] = tested on: PSTPIP tyrosine phosphorylation; test: Tyrosine phosphorylation of PSTPIP in COS cells co-transfected with V-src; format: cell-based; settings: COS cells
Protocol: Baf3 cells were lysed in 1% Triton, 50 mM HEPES. 10% glycerol and 5 mM EDTA containing 1 μg/ml aprotinin, PMSF, leupeptin and pepstatin were 1 mM Sodium Vanadate and 10 mM Iodoacetic acid. Cells were treated with 0.1 mM Pervanadate for 4 hours before lysis. Immunoprecipitations were performed in the vanadate-containing lysis buffer using 1 μg/ml anti-PSTPIP polyclonal antibody and 400 μg of lysate protein at 4° C. overnight. Western blots were performed using 1 μg/ml affinity purified anti-PSTPIP or 1:5000 dilution of commercial 4G10 anti-phosphotyrosine monoclonal (Upstate Biotech). Signal was detected by HRPO-ECL reagents (Pierce). The C221-S mutant was as previously described (Cheng et al., (1996) supra). The PTP HSCF D197-A mutant was generated using PCR. Mutagenesis primer D197A.F ([…]) (SEQ ID NO:24), corresponding to nucleotide 591, and primer D197A.R ([…]) (SEQ ID NO:25) which corresponds to the stop codon, were used in PCR to generate a fragment that could be cut with Mscl and XbaI. pRK.HA.38 WT, a plasmid which encoded the wild type enzyme under the control of the cytomegalovirus promoter (Cheng et al., (1996) supra), was digested with Clal and Mscl and the resulting 600 bp fragment was ligated with the Mscl-Xbal PCR fragment into the Clal and Xbal sites of the pRK.tkneo. A plasmid encoding the V-src oncogene under the control of the SV40 early promoter was the kind gift of Dr. Art Levinson (CEO-Genetech, Inc.). NIH 3T3 cells and the COS-7 cells were cultured in high glucose DMEM supplemented with 10% FBS, 2 mM L-Glutamine, 10 mM HEPES pH 7.2 and pen-strep.
as §1
COS cells were transfected with a constant amount of either the wild type of W232A mutant of PST PIP and cotransfected with increasing amounts of a plasmid encoding the v-Src tyrosine kinase (Spencer et al, (1997), supra). Plasmid concentrations were equalized with an empty vector containing the CMV promoter. After 48 hours, lysates were prepare and immunoprecipitated with anti-FLAG monoclonal antibody. Precipitates were run on SDS polyacrylamide gels, blotted, and probed with either anti-FLAG antibody or anti-phosphotyrosine antibody as previously described (Spencer et al, (1997), supra). Bound antibodies were visualized using enhanced chemiluminescent reagents.

B1: W232A mutant of PST PIP, C-terminal FLAG (other)
chain: MMAQLQFRDAFWCRDFTAHTGYEVLLQRLLDGRKMCKDVEELLRQRAQAEERYGKELVQIARKAGGQTEMNSLRTSFDSLKQQTENVGSAHIQLALALREELRSLEEFRERQKEQRKKYEAIMDRVQKSKLSLYKKTMESKKAYDQKCRDADDAEQAFERVSANGHQKQVEKSQNKAKQCKESATEAERVYRQNIEQLERARTEWEQEHRTTCEAFQLQEFDRLTILRNALAVHCNQLSMQCVKDDELYEEVRLTLEGCDVEGDINGFIQSKSTGREPPAPVPYQNYYDREVTPLIGSPSIQPSCGVIKRFSGLLHGSPKTTPSAPAASTETLTPTPERNELVYASIEVQATQGNLNSSAQDYRALYDYTAQNSDELDISAGDILAVILEGEDGWWTVERNGQRGFVPGSYLEKLDYKDDDDK
notes: In vitro translated or expressed in COS cells; also called W232A PST PIP; PST PIP with an alanine replacement mutation at tryptophan232
cellular localization of PST PIP forms (assay for correct folding) (CHO cells): indistinguishable from the wild type protein | in vivo association (coprecipitation) of PST PIP and PTP HSCF [1]: complete lack of in vivo association; also recorded: neither coprecipitated with PTP HSCF | efficiency of tyrosine phosphorylation in the presence of v-Src versus wild type [2]: significantly more efficiently tyrosine phosphorylated | tyrosine phosphorylation of PST PIP forms in the presence of dominant negative PTP HSCF C-S (substrate trapping) [2]: not hyperphosphorylated | levels of phosphotyrosine in mutant versus wild type PST PIP, densitometry ([2]; increasing v-Src plasmid): 2-3 fold

B2: PSTPIP: murine PST Phosphatase Interacting Protein, 415 residues (SEQ ID NO:1) (protein)
chain: MMAQLQFRDAFWCRDFTAHTGYEVLLQRLLDGRKMCKDVEELLRQRAQAEERYGKELVQIARKAGGQTEMNSLRTSFDSLKQQTENVGSAHIQLALALREELRSLEEFRERQKEQRKKYEAIMDRVQKSKLSLYKKTMESKKAYDQKCRDADDAEQAFERVSANGHQKQVEKSQNKAKQCKESATEAERVYRQNIEQLERARTEWEQEHRTTCEAFQLQEFDRLTILRNALWVHCNQLSMQCVKDDELYEEVRLTLEGCDVEGDINGFIQSKSTGREPPAPVPYQNYYDREVTPLIGSPSIQPSCGVIKRFSGLLHGSPKTTPSAPAASTETLTPTPERNELVYASIEVQATQGNLNSSAQDYRALYDYTAQNSDELDISAGDILAVILEGEDGWWTVERNGQRGFVPGSYLEKL
modifications: Mus Musculus
cellular localization of PST PIP forms (assay for correct folding) (CHO cells): predominantly co-localized with the cortical actin cytoskeleton | in vivo association (coprecipitation) of PST PIP and PTP HSCF ([1]; listed as PST PIP wt): found in a complex with precipitated PTP HSCF | in vivo association (coprecipitation) of PST PIP and PTP HSCF ([1]; listed as wild type PST PIP): in vivo association of the proteins | tyrosine phosphorylation of PST PIP forms in the presence of dominant negative PTP HSCF C-S (substrate trapping) ([2]; listed as PST PIP wt): hyperphosphorylated | tyrosine phosphorylation of PST PIP forms in the presence of dominant negative PTP HSCF C-S (substrate trapping) ([2]; listed as wild type PST PIP): enhanced tyrosine phosphorylation
